Laboratory results reported in article doi:10.1101/2025.01.07.631770, “Backbone and Sidechain ^1H, ^15N and ^13C Resonance Assignments of a Multidrug Efflux Membrane Protein using Solution and Solid-State NMR” (bioRxiv, 2025).

Biological target: the molecule itself
Experiment: solid-state NMR (13C-detected MAS, 2D NCA; two sets of peaks); S64V-EmrE in POPC proteoliposomes, 25:1 lipid/EmrE monomer, pH 5.8; 1.1 GHz, MAS 25 kHz, sample temperature 10 ± 5 °C

B1: S64V-EmrE (natural protein, E. coli, UniProt P23895 1-110, looked up)
chain: MNPYIYLGGAILAEVIGTTLMKFSEGFTRLWPSVGTIICYCASFWLLAQTLAYIPTGIAYAIWVGVGIVLISLLSWGFFGQRLDLPAIIGMMLICAGVLIINLLSRSTPH
notes: also called EmrE mutant S64V
B1: binds.
